According to patent publication US20190263922A1 (TIGA TX, published 2019):

Columns and labels:
human CD20 [1] = target: T1, human CD20 (human, UniProt P11836 1-297); assay: LigandTracer Green, 10 nM FITC-labeled mAb on SKBR3-CD20 cells, OneToOne fit, non-competitive dissociation
T1 construct: whole, on cells; Always presented on cells; also called MS4A1; CD20 WT
T1 sequence (looked up): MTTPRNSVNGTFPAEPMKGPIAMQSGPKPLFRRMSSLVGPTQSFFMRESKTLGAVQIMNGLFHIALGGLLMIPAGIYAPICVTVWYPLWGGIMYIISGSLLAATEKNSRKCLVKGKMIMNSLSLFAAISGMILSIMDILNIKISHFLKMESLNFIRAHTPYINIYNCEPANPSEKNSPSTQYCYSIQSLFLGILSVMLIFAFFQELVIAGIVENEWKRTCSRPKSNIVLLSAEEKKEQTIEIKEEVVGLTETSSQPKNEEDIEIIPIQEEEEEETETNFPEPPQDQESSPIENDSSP
Protocol: (§1) Kinetics analysis of interactions between the mAbs and CD20 was performed by using the LigandTracer green Technology (Ridgeview Instruments AB). 10⁶ SKBR3-CD20 cells were seeded on one side of a 10 cm culture dish (Greiner) as target cell area and association of 10 nM FITC-labeled CD20 mAb was measured. For non-competitive or competitive dissociation, labeled mAb solution was replaced by RPMI culture medium or 100 nM unlabeled mAb of the same clone, respectively. Analysis was performed using an OneToOne fitting model in TraceDrawer (Ridgeview Instruments AB).
(§2) A slow Ab off-rate might favor the formation of Ab-Clq complexes, the first component of the classical complement pathway. […] To characterize interaction kinetics and affinity of mAbs, we used the LigandTracer technology to record real-time binding and dissociation of Abs to cellular receptors.

human CD20 [2] = target: T1, human CD20; assay: LigandTracer Green, 10 nM FITC-labeled mAb on SKBR3-CD20 cells, OneToOne fit, competitive dissociation (100 nM unlabeled mAb of the same clone)
Protocol: as §1, §2

human CD20 [3] = target: T1, human CD20; assay: binding assay, parental against L11V version, data not shown
human CD20 [4] = target: T1, human CD20; assay: FACS on Ramos cells, dilution series
human CD20 [5] = target: T1, human CD20; assay: FACS on Daudi cells, dilution series
Protocol: FIG. 8. […] Binding was determined by FACS after incubation of Daudi cells with a dilution series of mAb.
10⁵ Daudi cells were plated out in a 96-well plate and incubated with IgG1-CD20 mAbs (in PBS) for 45 min on ice. After washing, bound CD20 mAbs were detected with goat-F(ab′)₂-anti-hIgG-RPE (Southern Biotech) and subsequently measured on a FACS Canto II (BD).

B1: m2 (mIgG2c-CD20 mAb) (antibody, V domains shown)
VH: QAYLQQSGAELVRPGASVKMSCKASGYTFTSYNMHWVKQTPRQGLEWIGGIYPGNGDTSYNQKFKGKATLTVDKSSSTAYMQLSSLTSEDSAVYFCARYYYGSSYGAMDYWGQGTSVTVSS
VL: QIVLSQSPAILSASPGEKVTMTCRASSSVSYMHWYQQKPGSSPKPWIYATSNLASGVPARFSGSGSGTSYSLTISRVEAADAATYYCHQWTFNPPTFGGGTKLEIK
modifications: FITC- or Alexa647-labelled in the kinetic assays; label sites not given
notes: Mouse IgG2c hybridoma mAb; FITC- or Alexa647-labeled in the kinetic assays
B1 gave a Kd (human CD20 [1]) of 0.21 nM, a koff (human CD20 [1]) of 1.77e-05 s⁻¹ and a kon (human CD20 [1]) of 85400 M⁻¹ s⁻¹. It also gave a Kd (human CD20 [2]) of 0.96 nM, a koff (human CD20 [2]) of 7.8e-05 s⁻¹ and a kon (human CD20 [2]) of 81700 M⁻¹ s⁻¹.

B2: m9 (mIgG2c-CD20 mAb) (antibody, V domains shown)
VH: QAYLQQSGAELVRPGASVKMSCKASGYTFPSYNMHWVKQTPRQGLEWIGAIYPGNGDTSYNQKFKGKASQTVDKSSSTVYMQLSSLTSADSAVYFCARSRLFDSSYGWYFDVWGTGTTVTVSS
VL: QIVLSQSPAILSAYPGEKVTMTCRARSSVSYIDWYQQKAGSSPKPWIYATSNLASGVPARFSGSGSGTSYSLTISRVEAEDAATYYCQQWTSNPPTFGGGTKLEIK
modifications: FITC-labelled antibody in the LigandTracer assay; the label positions are not defined.
notes: Mouse IgG2c hybridoma mAb; FITC-labeled in LigandTracer
For B2, the Kd (human CD20 [1]) was 0.25 nM, the koff (human CD20 [1]) was 1.13e-05 s⁻¹ and the kon (human CD20 [1]) was 45700 M⁻¹ s⁻¹. For the same binder, the Kd (human CD20 [2]) was 0.12 nM, the koff (human CD20 [2]) was 6.53e-06 s⁻¹ and the kon (human CD20 [2]) was 53900 M⁻¹ s⁻¹.

B3: m10 (mIgG2c-CD20 mAb) (antibody, V domains shown)
VH: QAYLQQSGADLVRPGASVKMSCKASGFTFPSYNLHWVKQTPRQGLEWIGAIYPGNGDTSYNQKFKGKATLTVDKSSSTAYMQLSSLTSEDSAVYFCARSAYYGSNVWFFDVWGTGTTVTVSS
VL: QIVLSQSPAILSASPGEKVTMTCRASSSVSYMDWYQQKPGSSPKPWIYATSNLASGVPTRFSGSGSGTSYSLTISRVEAEDAATYYCQQWISNPPTFGAGTKLDLK
modifications: FITC-labelled in the LigandTracer assay; label sites not given
notes: as for B2
Work on B3 yielded a Kd (human CD20 [1]) of 0.19 nM, a koff (human CD20 [1]) of 8.17e-06 s⁻¹ and a kon (human CD20 [1]) of 44200 M⁻¹ s⁻¹. For the same binder, the Kd (human CD20 [2]) was 0.51 nM, the koff (human CD20 [2]) was 2.82e-05 s⁻¹ and the kon (human CD20 [2]) was 55700 M⁻¹ s⁻¹.

B4: IgG1-CD20-1 with the L11V mutation (antibody)
heavy: not shown
light: QIVLSQSPAVLFASPGEKVTMTCRARSSVSYMDWYQQKPRSSPKPWIYATSNLASGVPARFSGSGSGTSYSLTISRVEAEDAATYYCQQWTSNPPTFGSGTKLEIKRTVAAPSVFIFPPSDEQLKSGTASVVCLLNNFYPREAKVQWKVDNALQSGNSQESVTEQDSKDSTYSLSSTLTLSKADYEKHKVYACEVTHQGLSSPVTKSFNRGEC
notes: Chimeric human IgG1/kappa; leucine to valine at Kabat position 11 of the VH framework; also called IgG1-CD20-1 L11V
B4: binds (human CD20 [3]).

B5: IgA1 variant of m1 (IgA-CD20-1 as IgA1) (antibody)
heavy: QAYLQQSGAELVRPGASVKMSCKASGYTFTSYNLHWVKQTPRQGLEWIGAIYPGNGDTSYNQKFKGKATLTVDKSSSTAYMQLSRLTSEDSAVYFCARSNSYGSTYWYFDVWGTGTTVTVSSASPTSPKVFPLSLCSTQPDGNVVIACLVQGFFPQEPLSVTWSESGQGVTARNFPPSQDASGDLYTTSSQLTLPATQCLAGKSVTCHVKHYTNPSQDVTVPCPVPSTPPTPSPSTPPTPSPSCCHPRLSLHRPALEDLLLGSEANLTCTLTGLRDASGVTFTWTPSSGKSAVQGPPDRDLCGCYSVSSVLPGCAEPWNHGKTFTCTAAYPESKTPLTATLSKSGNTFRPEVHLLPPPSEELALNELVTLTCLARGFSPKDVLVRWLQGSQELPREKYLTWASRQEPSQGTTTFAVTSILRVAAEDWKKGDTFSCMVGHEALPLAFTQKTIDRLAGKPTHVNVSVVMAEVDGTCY
light: QIVLSQSPAVLFASPGEKVTMTCRARSSVSYMDWYQQKPRSSPKPWIYATSNLASGVPARFSGSGSGTSYSLTISRVEAEDAATYYCQQWTSNPPTFGSGTKLEIKRTVAAPSVFIFPPSDEQLKSGTASVVCLLNNFYPREAKVQWKVDNALQSGNSQESVTEQDSKDSTYSLSSTLTLSKADYEKHKVYACEVTHQGLSSPVTKSFNRGEC
notes: Monomeric human IgA1 constant region (pEE14.4-IgA1) and human kappa light chain; also called IgA1-CD20 mAb; IgA1-CD20 UMAB001
B5: binds (human CD20 [4]).

B6: IgA2 variant of m1 (IgA-CD20-1 as IgA2(m1)) (antibody)
heavy: QAYLQQSGAELVRPGASVKMSCKASGYTFTSYNLHWVKQTPRQGLEWIGAIYPGNGDTSYNQKFKGKATLTVDKSSSTAYMQLSRLTSEDSAVYFCARSNSYGSTYWYFDVWGTGTTVTVSSASPTSPKVFPLSLDSTPQDGNVVVACLVQGFFPQEPLSVTWSESGQNVTARNFPPSQDASGDLYTTSSQLTLPATQCPDGKSVTCHVKHYTNPSQDVTVPCPVPPPPPCCHPRLSLHRPALEDLLLGSEANLTCTLTGLRDASGATFTWTPSSGKSAVQGPPERDLCGCYSVSSVLPGCAQPWNHGETFTCTAAHPELKTPLTANITKSGNTFRPEVHLLPPPSEELALNELVTLTCLARGFSPKDVLVRWLQGSQELPREKYLTWASRQEPSQGTTTFAVTSILRVAAEDWKKGDTFSCMVGHEALPLAFTQKTIDRLAGKPTHVNVSVVMAEVDGTCY
light: QIVLSQSPAVLFASPGEKVTMTCRARSSVSYMDWYQQKPRSSPKPWIYATSNLASGVPARFSGSGSGTSYSLTISRVEAEDAATYYCQQWTSNPPTFGSGTKLEIKRTVAAPSVFIFPPSDEQLKSGTASVVCLLNNFYPREAKVQWKVDNALQSGNSQESVTEQDSKDSTYSLSSTLTLSKADYEKHKVYACEVTHQGLSSPVTKSFNRGEC
notes: Monomeric human IgA2(m1) constant region (pEE14.4-IgA2(m1)) and human kappa light chain; also called IgA2-CD20 mAb; IgA2-CD20 UMAB001
B6: binds (human CD20 [4]).

B7: IgA2 variant of m2 (IgA-CD20-2 as IgA2(m1)) (antibody)
heavy: QAYLQQSGAELVRPGASVKMSCKASGYTFTSYNMHWVKQTPRQGLEWIGGIYPGNGDTSYNQKFKGKATLTVDKSSSTAYMQLSSLTSEDSAVYFCARYYYGSSYGAMDYWGQGTSVTVSSASPTSPKVFPLSLDSTPQDGNVVVACLVQGFFPQEPLSVTWSESGQNVTARNFPPSQDASGDLYTTSSQLTLPATQCPDGKSVTCHVKHYTNPSQDVTVPCPVPPPPPCCHPRLSLHRPALEDLLLGSEANLTCTLTGLRDASGATFTWTPSSGKSAVQGPPERDLCGCYSVSSVLPGCAQPWNHGETFTCTAAHPELKTPLTANITKSGNTFRPEVHLLPPPSEELALNELVTLTCLARGFSPKDVLVRWLQGSQELPREKYLTWASRQEPSQGTTTFAVTSILRVAAEDWKKGDTFSCMVGHEALPLAFTQKTIDRLAGKPTHVNVSVVMAEVDGTCY
light: QIVLSQSPAILSASPGEKVTMTCRASSSVSYMHWYQQKPGSSPKPWIYATSNLASGVPARFSGSGSGTSYSLTISRVEAADAATYYCHQWTFNPPTFGGGTKLEIKRTVAAPSVFIFPPSDEQLKSGTASVVCLLNNFYPREAKVQWKVDNALQSGNSQESVTEQDSKDSTYSLSSTLTLSKADYEKHKVYACEVTHQGLSSPVTKSFNRGEC
notes: Monomeric human IgA2(m1) constant region (pEE14.4-IgA2(m1)) and human kappa light chain; also called IgA2-CD20 mAb; IgA2-CD20 UMAB002
B7: binds (human CD20 [4]).

B8: IgA1 variant of m2 (IgA-CD20-2 as IgA1) (antibody)
heavy: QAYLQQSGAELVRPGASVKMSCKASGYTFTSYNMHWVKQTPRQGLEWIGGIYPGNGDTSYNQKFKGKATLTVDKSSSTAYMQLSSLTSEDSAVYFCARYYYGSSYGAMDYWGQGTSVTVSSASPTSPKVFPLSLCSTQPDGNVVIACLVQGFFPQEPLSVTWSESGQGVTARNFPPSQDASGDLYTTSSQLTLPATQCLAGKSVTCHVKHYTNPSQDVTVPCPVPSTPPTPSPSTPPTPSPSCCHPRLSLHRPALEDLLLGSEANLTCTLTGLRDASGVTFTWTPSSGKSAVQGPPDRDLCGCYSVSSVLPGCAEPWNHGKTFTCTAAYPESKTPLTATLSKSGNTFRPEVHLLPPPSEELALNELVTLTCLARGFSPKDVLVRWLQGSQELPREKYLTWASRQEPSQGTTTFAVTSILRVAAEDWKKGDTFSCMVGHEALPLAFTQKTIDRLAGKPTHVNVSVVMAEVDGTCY
light: QIVLSQSPAILSASPGEKVTMTCRASSSVSYMHWYQQKPGSSPKPWIYATSNLASGVPARFSGSGSGTSYSLTISRVEAADAATYYCHQWTFNPPTFGGGTKLEIKRTVAAPSVFIFPPSDEQLKSGTASVVCLLNNFYPREAKVQWKVDNALQSGNSQESVTEQDSKDSTYSLSSTLTLSKADYEKHKVYACEVTHQGLSSPVTKSFNRGEC
notes: Monomeric human IgA1 constant region (pEE14.4-IgA1) and human kappa light chain; also called IgA1-CD20 mAb; IgA1-CD20 UMAB002
B8: binds (human CD20 [4]).

B9: IgG1-CD20-2 with the L11V mutation (antibody)
heavy: not shown
light: QIVLSQSPAILSASPGEKVTMTCRASSSVSYMHWYQQKPGSSPKPWIYATSNLASGVPARFSGSGSGTSYSLTISRVEAADAATYYCHQWTFNPPTFGGGTKLEIKRTVAAPSVFIFPPSDEQLKSGTASVVCLLNNFYPREAKVQWKVDNALQSGNSQESVTEQDSKDSTYSLSSTLTLSKADYEKHKVYACEVTHQGLSSPVTKSFNRGEC
notes: Chimeric human IgG1/kappa; leucine to valine at Kabat position 11 of the VH framework; also called IgG1-CD20-2 L11V
B9: binds (human CD20 [3]).

B10: IgG1-CD20-9 (antibody, V domains shown)
VH: QAYLQQSGAELVRPGASVKMSCKASGYTFPSYNMHWVKQTPRQGLEWIGAIYPGNGDTSYNQKFKGKASQTVDKSSSTVYMQLSSLTSADSAVYFCARSRLFDSSYGWYFDVWGTGTTVTVSS
VL: QIVLSQSPAILSAYPGEKVTMTCRARSSVSYIDWYQQKAGSSPKPWIYATSNLASGVPARFSGSGSGTSYSLTISRVEAEDAATYYCQQWTSNPPTFGGGTKLEIKR
notes: Chimeric: human IgG1 constant region and human kappa light chain; also called chimerized version of m9
B10: binds (human CD20 [5]).

B11: IgG1-CD20-10 (antibody, V domains shown)
VH: QAYLQQSGADLVRPGASVKMSCKASGFTFPSYNLHWVKQTPRQGLEWIGAIYPGNGDTSYNQKFKGKATLTVDKSSSTAYMQLSSLTSEDSAVYFCARSAYYGSNVWFFDVWGTGTTVTVSS
VL: QIVLSQSPAILSASPGEKVTMTCRASSSVSYMDWYQQKPGSSPKPWIYATSNLASGVPTRFSGSGSGTSYSLTISRVEAEDAATYYCQQWISNPPTFGAGTKLDLKR
notes: Chimeric: human IgG1 constant region and human kappa light chain; also called chimerized version of m10
B11: binds (human CD20 [5]).

B12: IgG1-CD20-7 (antibody, V domains shown)
VH: QAYLQQSGAELVRPGASVKMSCKASGYTFASYNMHWIKQTPRQGLEWIAAIYPGNGDTSYNQKFKGKATLTVDKSSSTAYMQLSSLTSEDSAVYFCARTYYYGSSPYWSFDVWGTGTTVTVSS
VL: DIQMTQSPASLSASVGETVTVTCGASYNIYGALNWYQRKQGKSPQLLIYGATNLADGMSSRFSGSGSGRQYSLKISSLHPDDVATYYCQNVLSNPPTFGGGTKLEIKR
notes: Chimeric: human IgG1 constant region and human kappa light chain; also called chimerized version of m7
B12: binds (human CD20 [5]).
